The results in this text go back to patent US20240218342A1, “SITE-SPECIFIC GLYCAN REMODELING OF LYSOSOMAL ENZYMES AND APPLICATIONS THEREOF” (priority 2021, published 2024).

Experiment [1] deals with Bovine RNase B (bovine) (UniProt P61823).
Experiment [2] concerns the target GlcNAc-RNase B (67) (bovine) (UniProt P61823).

Chain of Bovine RNase B (bovine) (P61823 27-150): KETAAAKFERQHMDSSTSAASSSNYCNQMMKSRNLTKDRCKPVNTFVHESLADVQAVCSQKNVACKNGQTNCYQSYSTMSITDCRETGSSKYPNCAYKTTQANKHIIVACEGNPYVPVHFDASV
Chain of GlcNAc-RNase B (67) (bovine) (P61823 27-150): as above

B1: Wild-type Endo-A (enzyme)
chain: STYNGPLSSHWFPEELAQWEPDSDPDAPFNRSHVPLEPGRVANRVNANADKDAHLVSLSALNRHTSGVPSQGAPVFYENTFSYWHYTDLMVYWAGSAGEGIIVPPSADVIDASHRNGVPILGNVFFPPTVYGGQLEWLEQMLEQEEDGSFPLADKLLEVADYYGFDGWFINQETEGADEGTAEAMQAFLVYLQEQKPEGMHIMWYDSMIDTGAIAWQNHLTDRNKMYLQNGSTRVADSMFLNFWWRDQRQSNELAQALGRSPYDLYAGVDVEARGTSTPVQWEGLFPEGEKAHTSLGLYRPDWAFQSSETMEAFYEKELQFWVGSTGNPAETDGQSNWPGMAHWFPAKSTATSVPFVTHFNTGSGAQFSAEGKTVSEQEWNNRSLQDVLPTWRWIQHGGDLEATFSWEEAFEGGSSLQWHGSLAEGEHAQIELYQTELPISEGTSLTWTFKSEHGNDLNVGFRLDGEEDFRYVEGEQRESINGWTQWTLPLDAFAGQTITGLAFAAEGNETGLAEFYIGQLAVGADSEKPAAPNVNVRQYDPDPSGIQLVWEKQSNVHHYRVYKETKHGKELIGTSAGDRIYLEGLVEESKQNDVRLHIEALSETFVPSDARMIDIKSGSF
In turn, B1 returned a deglycosylation of RNase B, isolated yield of GlcNAc-RNase B 67 in experiment [1] of 86%. In addition, the transglycosylation of oxazoline 8 to GlcNAc-RNase B, yield of glycoprotein 68 in experiment [2] was determined as 71%.
